Source: US8597922B2, “Methods and compositions for producing olefins” (LS9, Inc., priority 2007, dated 2013)
Where two headings read alike, the source gives them in different places.

What was measured:
E. coli C41 ΔfadE = type: cell-based
Description: Genomic DNA encoding C. efficiens YS-134 (DSMZ44549) orfCE2459 (SEQ ID NO:6) was cloned into the NcoI and EcoRI sites of vector OP-80 (pCL1920 derivative) under the control of the Ptrc promoter. The resulting construct was then transformed into E. coli C41 ΔfadE.
The cells were grown at 37° C. in M9 minimal media supplemented with 20 μg/mL uracil, 1% glucose (w/v), and 100 μg/mL spectinomycin. When the culture reached an OD600 of 0.8 to 1.0, it was induced with 1 mM IPTG supplemented with 0.5 mM delta-aminolaevulinic acid (heme biosynthesis precursor), and 0.05% stearic acid (as a substrate for orfCE2459). The temperature was shifted to 25° C. and cells were allowed to grow for an additional 18-20 h Cells from 1 mL of culture were resuspended with 100 μL of methanol, sonicated for 30 min, and extracted with 300 μL of ethyl acetate. After vortexing for 15 min, 300 μL of water was added, and the mixture was vortexed for another 15 min before centrifugation at 15,000 rpm for 10 min. The solvent layer was analyzed by GC-MS.
Genomic DNA encoding Kokuria rhizophila DC2201 orfKRH21570 (SEQ ID NO:8), which was codon optimized (SEQ ID NO:9) for expression in E. coli, was cloned into the NdeI and XhoI sites of vector OP-183 (pACYC177 derivative) under the control of the Ptrc promoter. The resulting construct was then transformed into E. coli C41 ΔfadE. The cells were grown, extracted, and analyzed as in described in Example 7.
The genomic DNA encoding Bacillus subtilis fatty acid hydroxylase, Cyp152A1 (SEQ ID NO:13) or P450Bsβ, was cloned into the NdeI and XhoI sites of vector OP-183 (pACYC177 derivative) under the control of the Ptrc promoter. The construct was used as a template to introduce a mutation at position 85 changing the Glu to His using the following primer: GTTAATGCGATTCAcGGAATGGATGGC. The resulting constructs were then transformed into E. coli C41 (ΔfadE). The cells were grown at 37° C. in M9 minimal media supplemented with 20 μg/mL uracil, 1% glucose (w/v), and 100 μg/mL carbenicillin. When the culture reached OD600 of 0.8-1.0, it was induced with 1 mM IPTG; supplemented with 0.5 mM delta-aminolaevulinic acid (heme biosynthesis precursor) and 0.05% stearic acid (as a substrate for Bsb). The temperature was shifted down to 25° C. and cells were allowed to grow for an additional 18-20 h. Cells from 1 mL of culture was resuspended with 100 μL of methanol, sonicated for 30 min, and extracted with 300 μL of ethyl acetate. After vortexing the extract for 15 min, 300 μL of water was added, vortexed for another 15 minutes before centrifugation at 15,000 rpm for 10 minutes. The solvent layer was analyzed by GC-MS.

[1] = In vitro α-olefin synthesis by purified His-tagged protein with hydrogen peroxide; type: biochemical; settings: 200 μL purified protein, 200 μM hydrogen peroxide, 200 μM potassium hexadecanoate, room temperature overnight
Description: E. coli C41 DE3 (ΔfadE) cells were transformed with pET15b-orfKRH21570 using routine transformation techniques. Protein expression was carried out by first inoculating 5 mL of LB broth supplemented with 100 mg/L carbenicillin with a colony of the E. coli strain which was followed by shaking the cells overnight at 37° C. to produce a starter culture. This starter culture was used to inoculate 0.5 L of LB media supplemented with 100 mg/L of carbenicillin. The culture was shaken at 37° C. until an OD600 value of 0.6 was reached, after which it was induced with 1 mM IPTG and 0.5 mM delta-aminolaevulinic acid. The culture was then shaken at 25° C. for approximately 18 h. The protein was purified as described in Example 12.
To assay the activity of ORF_KRH21570, 200 μL of purified protein was incubated with 200 μM of hydrogen peroxide and 200 μM of potassium hexadecanoate. As a negative control, the same reaction was conducted, but without the addition of either purified protein (100 mM sodium phosphate pH 7.2 was used in its place) or free fatty acid. The reactions were performed in duplicates and incubated at room temperature overnight. […] Trimethylanilinium hydroxide was added to the ethyl acetate layer at a 1:1 ratio and the extracts analyzed by GC/MS using the MAR_splitless_short method. […]

B1: orf_KRH21570: ORF880 homolog P450 enzyme from Kokuria rhizophila DC2201, YP_001856010 (protein, listed as Kokuria rhizophila)
chain: MTSPFGQTRSEQGPSLLRSGYLFASRARRRAGLSSDSGCPVRMPLLGKQTVLVRGEEGVKLFYDTSRVRRDGAMPGVVQGPLFGAGAVHGLDGEAHRVRKNQLADMAYEDERVAAYKPFVAEELENLVARWKDGDNVYDSTAIAFGRASFRWAGLQWGVPEMDRWARRMSRLLDTFGRPATHLVSRLDRIALDRRFAALIKDVRAGKVNAPEDSVLAHMAALVDEHGELVDAKTAGIELQNLTRPNVAVARFAAFAATALVEHPEWVERIRAASEQRGGTLLDVPEAVAFAQEVRRVYPFVPMLPAEVTQDTEIQGCPVHKGERVVLDILGTNTDPTSWDRAATFDPERFLGVEDAEAITTFIPQGGAEVRTGHRCPGEKIAVTSLSAAVVALCRPEVQLPGDQDDLTFSWTHMLTRPVTGVRVRTTR
What does the source list for B1?
α-olefin produced (E. coli C41 ΔfadE; with 0.05% stearic acid feeding): 1-heptadecene; α-olefin produced (E. coli C41 ΔfadE; without stearic acid feeding, grown on glucose): 1-heptadecadiene; α-olefin formed from hexadecanoic acid [1]: 1-pentadecene
